Source: US11452764B2, “Inhibiting FAK-AKT interaction to inhibit metastasis” (Board of Trustees of Michigan State University, priority 2017, dated 2022)
“Also recorded” adds a separate entry of the source. Where no end group is shown, it is not given here.

Legend:
[1] = biological target: Akt1 (Homo sapiens, UniProt P31749); assay: GST-FAK truncation/mutant fusion protein pull-down of Akt1 (cell lysate or purified Akt1); format: binding; parameters: endogenous in cells; host or cells: Caco-2 or SW620 cell lysate; conditions: for Akt1 pull-down by mutated GST-FAK-NT1 versus wild-type NT1: SW620 lysate, densitometry normalized to wild-type NT1, n=8-19, p<0.05; for Akt1 pulled down by GST-FAK truncations: GST pull-down, N=4, p<0.05
Akt1, sequence (P31749 whole entry, the tested form may be a part): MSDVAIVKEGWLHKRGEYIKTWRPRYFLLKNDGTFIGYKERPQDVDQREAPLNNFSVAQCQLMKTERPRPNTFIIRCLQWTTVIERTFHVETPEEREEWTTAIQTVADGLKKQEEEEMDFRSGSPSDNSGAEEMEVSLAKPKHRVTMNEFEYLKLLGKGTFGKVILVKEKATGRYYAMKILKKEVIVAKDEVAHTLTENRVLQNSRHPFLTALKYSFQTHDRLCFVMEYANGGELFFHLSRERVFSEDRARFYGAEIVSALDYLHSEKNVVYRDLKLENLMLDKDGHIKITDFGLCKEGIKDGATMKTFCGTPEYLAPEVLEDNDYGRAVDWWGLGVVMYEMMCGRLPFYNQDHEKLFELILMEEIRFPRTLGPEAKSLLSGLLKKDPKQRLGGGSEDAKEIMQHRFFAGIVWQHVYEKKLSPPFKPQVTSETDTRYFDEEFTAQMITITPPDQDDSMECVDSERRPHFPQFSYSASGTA
Description: Glutathione-Sepharose 4B beads (15 μl) were washed twice in ice-cold PBS and resuspended in 400 μl PBS. Bacterial lysate containing GST-Akt1, GST-FAK-NT1 (truncations), or GST proteins (gift of Dr. J. Chen) were then added in excess and incubated with the beads for 1 h. Glutathione-Sepharose 4B beads coupled to GST-Akt1, GST-FAK (truncations), or GST were then washed twice with PBS by centrifuge for 5 min at 500 g and incubated with nontransfected or transfected Caco-2 cell lysates (600-800 μg protein) overnight at 4° C. Transfected Caco-2 cells received plasmids encoding HA-WT-FAK or HA-FRNK. Nontransfected and transfected Caco-2 cell lysates were prepared in cell lysis buffer lysis buffer [50 mM Tris (pH 7.4), 150 mM NaCl, 1% Triton X-100, 1% sodium deoxycholate, 0.1% SDS, 1 mM EDTA, 1 mM phenylmethylsulfonyl fluoride, 1 mM Na3VO4, 50 mM NaF, 10 mM sodium pyrophosphate, […] (pH 7.4)]. Following incubation, beads were washed twice with lysis buffer without SDS and protease inhibitors. Proteins were eluted with Laemmli SDS sample dilution buffer, separated by 10% SDS-PAGE, and immunoblotted with GST, Akt1 (Cell Signaling Technology, Danvers, Mass.), or HA monoclonal antibodies (Covance, Chantilly, Va.).
(§1) In some cases Glutathione-Sepharose-4B beads (30 μl) (GE Healthcare Life Science, Pittsburgh, Pa.) were conjugated with GST (expressed protein from a 250 μl bacterial pellet per 30 μl of beads) or recombinant GST-tagged (expressed protein from a 3 ml bacterial pellet per 30 μl of beads) (24) and incubated with lysate from 2×10^7 Caco-2 or SW620 cells (1500 μg protein) or purified Akt1 (0.35 μg) (Origene, Rockville, Md.) overnight at 4° C. Similar incubation for two hours at 4° C. was performed with FAK-derived peptides (Peptide 2.0, Chantilly, Va.) reconstituted in sterile water and mixed with conjugated beads and cell lysate for a final concentration of […] before overnight Akt1 incubation. Bound protein was eluted for western analysis (24).
Protein concentrations were determined by bicinchoninic acid (BCA) protein assay (Pierce, Rockford, Ill.). Eluate from GST pull-downs or collected cell lysates was resolved by SDS-PAGE and transferred to Hybond P 0.45 PVDF blotting membrane (Amersham Life Science, Arlington Heights, Ill.). Membranes were blocked for 1 hour at room temperature with Odyssey TBS Blocking Buffer (Amersham Life Science, Arlington Heights, Ill.) and blotted overnight at 4° C. with antibodies against FAK (#3285), Phospho-FAK Tyr397 (#3283), Akt1 (#2967), Phospho-Akt1 Ser473 (#9271), GSK-3β (#9315), Phospho-GSK-3β Ser9 (#9315), or the GST tag (#2624) (CST, Beverly, Mass.). Membranes were visualized by the infrared fluorescent IRDye system (LI-COR Biosciences, Lincoln, Nebr.) and analyzed on an Odyssey scanner (LI-COR Biosciences, Lincoln, Nebr.) within the linear range. The doublet produced by the Akt1 antibody is consistent with results with this antibody (Ko et al., Elife: 5 (2016); Wu et al. Cell Discov 3: 16054 (2017)) and other (Datta et al. Cell 91: 231-41 (1997)) anti-Akt antibodies. Results were normalized to the appropriate GST tag, GAPDH, or total protein (for phosphorylated proteins) and relative to associated ambient controls unless stated otherwise.
Because the NT1 region of FAK is still quite large, we further truncated FAK-NT1 in an attempt to specify the region responsible for Akt1 binding. Five truncations were generated: NT1 (residues 1-126), NT1-1 (residues 1-60), NT1-2 (residues 61-126), […] (residues 61-93), and NT1-2-2 (residues 94-126) (FIG. 4A).
Tests involved use of 0.3 μg of purified Akt1 in pull-down assays to approximate the Akt1 in 1,500 μg of whole cell lysate, the lysate from 1×10^7 SW620 cells previously used in similar pull-down assays. This amount (0.3 μg of purified Akt1) was selected from Western blots comparing band intensity of 0.001-0.05 μg/lane of purified Akt1 against the band intensity of 40 or 80 μg/lane of cell lysate (not shown). […]

[2] = biological target: T1, FAK-Akt1 interaction (Homo sapiens, UniProt P31749); assay: Interference of FAK-derived peptides with GST-FAK / GST-FAK-NT1 pull-down of Akt1; format: binding; conditions: for Akt1 pulldown by full length GST-FAK in presence of interfering 7 amino acid peptide: bait human wild type GST-FAK, peptides at 160 μM, vs. vehicle, n=12-14
T1 construct: endogenous in cells; host or cells: Akt1 from Caco-2/SW620 cell lysate; GST-FAK bait expressed in E. coli BL21 (pGEX-4T1)
T1 sequence (P31749 whole entry): as the sequence (P31749 whole entry, the tested form may be a part) above
Description: as §1
To minimize the effect of non-specific binding to GST, a larger FAK-NT1 peptide (relative to GST) was used as bait and the effects of interference by NT1-2-2 FAK truncated peptides were assessed.
A full length GST-FAK was used as bait to further validate the ability of the interfering peptides to block Akt1 interaction with the entire FAK molecule. Because the seven-amino acid sequence from the short helix (LAHPPEE, SEQ ID NO:1) seemed sufficient for Akt1 binding (e.g., as shown in FIG. 6E), the focus was placed on this seven amino acid sequence and mutants thereof. […] Neither a scrambled version of the short helix (HPELAPE, SEQ ID NO:23) nor a peptide derived from the β-strand secondary structure C-terminal adjacent to the short helix (WKYELRI) interfered with pulldown.

[3] = test system: FAK-Tyr-397 phosphorylation; assay: FAK-Y397 western blotting in suspended SW620 cells at ambient or 15 mmHg increased pressure (ZINC compounds); format: cell-based, human; conditions: for Pressure stimulation of FAK-pTyr397 / Basal FAK-pTyr397: concentrations studied: ZINC31501681 1 pM-300 μM, ZINC58264388 1 nM-100 nM, ZINC40099027 10 pM-10 nM, ZINC25613745 1 nM
From the text: Extracellular pressure was increased by 15 mmHg over ambient pressure using a temperature and pressure-controlled box as described by Basson et al. (J Cell Biochem, 78: 47-61 (2000)).
Cells were maintained at ambient or increased pressure in bacteriologic plastic dishes pacificated with heat-inactivated bovine serum albumin to prevent adhesion and avoid adhesion-associated background FAK activation. Cells were lysed in lysis buffer, resolved by 10% SDS-PAGE, transferred to nitrocellulose and blotted with antibody to Tyr-397-phosphorylated FAK (rabbit monoclonal ab81298, Abcam, San Francisco, Calif., USA) and anti-rabbit 680 (LI-COR Inc. Lincoln, Nebr., USA), before quantitation using Kodak Scientific Imaging Systems 1D, V.3.5.4 (Zeng et al., Oncotarget, 8 98051-98067 (2017)). Total FAK (Anti-FAK, clone 4.47 Merck, Darmstadt, Germany with secondary anti-mouse 800, LI-COR Inc. Lincoln, Nebr., USA) served as a loading control. FAK and Tyr-397-phosphorylated FAK western blots yielded doublets similar to those previously observed by others (McConnell et al. Mol Cancer 10: 75 (2011); Aflaki et al. Cell Mol Life Sci, 68: 3933-3947 (2011)); Das et al. Cancer Res, 72: 6217-6226 (2012); Ammoun et al. Oncogene, 31: 1710-1722 (2012)). Both bands were quantitated together.
Four structurally similar molecules to the FAK-derived sequence LAHPP (SEQ ID NO:25) (Table 2) were evaluated for their ability to prevent FAK activation by 15 mmHg increased extracellular pressure in human SW620 colon cancer cells. […] The structures of these compounds are shown below (and in FIG. 17).

[4] = SW620, 15 mmHg increased pressure

## FAK(L113A/P116C/P117G): GST-FAK-NT1 triple mutant (AAHCGEE)
[1]
  Akt1 pull-down by mutated GST-FAK-NT1 versus wild-type NT1: increased Akt1 pull-down

## FAK(P117S): GST-FAK-NT1 with P117S mutation (LAHPSEE)
[1]
  Akt1 pull-down by mutated GST-FAK-NT1 versus wild-type NT1: lowered Akt1 pull-down

## WKYELRI [β-strand control peptide, C-terminal adjacent to the short helix, reference compound]
[2]
  Akt1 pulldown by full length GST-FAK in presence of interfering 7 amino acid peptide: No such effect

## LAHPPEE (listed as Homo sapiens) [wild-type seven amino acid short helix peptide, FAK residues 113-119]
[2]
  Akt1 pulldown by full length GST-FAK in presence of interfering 7 amino acid peptide: reduced Akt1 pulldown

## O=C(N[C@@H](CC(=O)N1CCC[C@H]1c1nnc2ccccn12)c1ccccc1)c1ccccc1 [ZINC31501681]
[3]; [4]
  Pressure stimulation of FAK-pTyr397: prevented a further pressure-induced increase in FAK-Tyr-397 phosphorylation
[3]; SW620, ambient pressure
  Basal FAK-pTyr397: increased basal FAK-Tyr-397 phosphorylation
[3]; suspended SW620, 1-100 pM, 30 minutes, vs 0.1% DMSO, five experiments, p≤0.05
  Phosphorylation of FAK-Tyr-397 at ambient pressure (pFAKY397/FAK): enhances the phosphorylation of FAK-Tyr-397

## NT1-1: recombinant GST-FAK truncated peptide, residues 1-60 (MAAAYLDPNLNHTPNSSTKTHLGTGMERSPGAMERVLKVFHYFESNSEPTTWASIIRHGD; also: recombinant GST fusion (GST tag); listed as Homo sapiens)
[1]
  Akt1 pulled down by GST-FAK truncations: significantly smaller amount of Akt1

## NT1-2-2: recombinant GST-FAK truncated peptide, residues 94-126 (SEQ ID NO:2) (EVHWVHLDMGVSSVREKYELAHPPEEWKYELRI; also: GST fusion (recombinant))
[1]
  Akt1 pulled down by GST-FAK truncations: significantly more Akt1
[1]; n=6, p<0.05 vs. GST
  Akt1 pull-down by GST-NT1-2-2 and its truncations versus GST control: pulled down much more

## Cc1ccccc1[C@@H]1CCCN1C(=O)C[C@H](NC(N)=O)c1cccs1 [ZINC58264388]
[3]; [4]
  Concentrations at which there was no further increase of FAK-pTyr397 by pressure: (10-100 nM)
  Pressure stimulation of FAK-pTyr397: prevented a further pressure-induced increase in FAK-Tyr-397 phosphorylation
[3]; SW620, ambient pressure
  Concentrations at which basal FAK-pTyr397 was increased: (10-100 nM)
  Basal FAK-pTyr397: increased basal FAK-Tyr-397 phosphorylation

## HPELAPE [scrambled short helix control peptide, reference compound]
[2]
  Akt1 pulldown by full length GST-FAK in presence of interfering 7 amino acid peptide: No such effect

## LAHPSEE [mutant (P117S) version of the seven amino acid FAK peptide]
[2]
  Akt1 pulldown by full length GST-FAK in presence of interfering 7 amino acid peptide: reduced Akt1 pulldown

## EVHWVHLDMGVSSVREKYELAHPPEEWKYELRI (listed as Homo sapiens) [Pep-FAK-NT1-2-2, wild-type 33 amino acid FAK peptide, residues 94-126]
[2]; bait GST-FAK-NT1, vs. vehicle (water), n=4
  Akt1 pulled down by GST-FAK-NT1 in presence of interfering 33 amino acid peptide: reduced binding between GST-FAK-NT1 and Akt1

## NT1-2-1: recombinant GST-FAK truncated peptide, residues 61-93 (ATDVRGIIQKIVDSHKVKNVACYGFRLSHLRSE; also: recombinant GST fusion (GST tag); listed as Homo sapiens)
[1]
  Akt1 pulled down by GST-FAK truncations: significantly smaller amount of Akt1

## AAHCGEE [triple mutant L113A, P116C, P117G version of the FAK peptide]
[2]
  Akt1 pulldown by full length GST-FAK in presence of interfering 7 amino acid peptide: reduced Akt1 pulldown

## COc1ccc([C@@H]2CCCN2C(=O)Nc2cc(C(F)(F)F)ccc2N2CCOCC2)cc1 [ZINC40099027]
[3]; [4]
  Pressure stimulation of FAK-pTyr397: prevented a further pressure-induced increase in FAK-Tyr-397 phosphorylation
[3]; SW620, ambient pressure
  Basal FAK-pTyr397: increased basal FAK-Tyr-397 phosphorylation

## C=C(Cl)/C(=C\C)[C@H](CC(=O)N1CCC[C@H]1c1ccc(OC)c(OC)c1)NC(N)=O [ZINC25613745]
[3]; [4]
  Pressure stimulation of FAK-pTyr397: affected neither basal nor pressure-stimulated FAK-Tyr-397 phosphorylation; also recorded: Maintained
[3]; SW620, ambient pressure
  Basal FAK-pTyr397: affected neither basal nor pressure-stimulated FAK-Tyr-397 phosphorylation; also recorded: No change
